# B1: antibody 1D7 (antibody, V domains shown)
# VH: QVQLVQSGAEVKTPGSSVKVSCKASGGSFSNYAISWVRQAPGQGLEWMGRIIATLGISNYAQKFQGRVTMTADKSTSTAYMELSSLRSEDTAVYYCASPITNFGVLIEVDAFHIWGQGTMVTVSS
# VL: EIVLTQSPFTLSLSPGERATLSCGASQSVSSSYLAWYQQKPGLAPRLLIYDGSSRATDIPDRFSGSGSGTDFTLTISRLEPEDFAMYYCQQYSTSPLTFGGGTKVEIK
# B2: antibody 3C11 (antibody, V domains shown)
# VH: EVQLVESGGGLVQPGGSLRLSCAASGFAFSTYEMNWVRQAPGKGLEWVSYIHNSGNPVYYADSVKGRFTISRDNAENSLYLQMNSLRAEDTAIYYCARALRYSTSWYDYWGQGTLVTVSS
# VL: EIVLTQSPVSLSLSPGERATLSCRASQSVSSYLAWYQQKPGQAPRLFIYDASKRATGIPARFSGSGSGTDFTLTISSLEPEDFAVYYCQQRSNWPRTFGQGTKVEIK
# B3: antibody 3G10 (antibody, V domains shown)
# VH: EVQLVESGGGLVQPGESLRLSCAASGLTVSSNYMSWVRQAPGKGLEWVSVIYAGGSTFYADSVKGRFTISRDNSKNTLYLQMNSLRAEDMAIYYCARDLSYYGMDVWGQGTTVTVSS
# VL: DIQLTQFPFSLSASVGDRVTITCRASQGISTYLAWYQQKPGRAPKLLIYAASTLQSGVPSRFSGSGSGTEFTLTISSLQPEDFATYYCQLLNSYPVHFGQGTKLEIK
# Tests used:
# [1] = target: T1, SARS-CoV-2 RBD (receptor binding domain) with Avi-tag, biotinylated (SARS-CoV-2, WH-1 (Wuhan-Hu-1, MN908947), UniProt P0DTC2); test: BLI; biotinylated RBD (5 μg/mL in PBST: PBS, 0.02% Tween 20, 0.1% BSA) immobilised on streptavidin biosensors; antibodies 500-7.8125 nM, 120 s association, 300 s dissociation; 1:1 binding model; settings: both partners purified
# T1 construct: also called recombinant RBD protein probe; biotinylated RBD; not shown: Avi-tag, C-terminal, kept
# [2] = target: T1, SARS-CoV-2 RBD (receptor binding …); test: cell-based or functional assay
# [3] = target: T2, SARS-CoV-2 RBD as crystallised with 3G10 and 3C11 (SARS-CoV-2, prototype (WH-1)); test: crystal structure; settings: both partners purified
# T2 construct: also called prototype (PT) RBD
Binder,Kd [1] [nM],"IC50 of neutralisation of SARS-CoV-2 pseudovirus (WH-1), luciferase read-out on Vero cells [2] [µg/mL]","IC50 of neutralisation of authentic SARS-CoV-2 WH-1 virus, CPE-based method on Vero cells [2] [µg/mL]",binding result [3]
B1,< 0.001,< 0.1,0.009,
B2,5.29,< 0.1,0.028,binds
B3,1.37,< 0.1,0.028,binds

# — PMC10207940, “Characterization of RBD-specific cross-neutralizing antibodies responses against SARS-CoV-2 variants from COVID-19 convalescents” (Frontiers in Immunology, 2023)
